The source of these data is the supplement of paper PMC12042874.

± gives the uncertainty stated by the source.

This series can be described thus: amyloid nucleation score (Sup35N fusion, yeast selection) (log enrichment); library NNK1; higher = more nucleation; inactive = no reads after selection. A digest of the protocol: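 Peptides of 20 random codons fused to Sup35N were expressed in psi-negative yeast, induced 24 hours with 100 μM copper sulfate, then grown 7 days at 30°C on medium lacking adenine and uracil. Input and output plasmid inserts were Illumina-sequenced. Nucleation score is the DiMSum log enrichment of output over input reads, centred on the mode score of non-aggregating sequences, excluding sequences with under 100 input reads. Random libraries had three technical output replicates.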
On to AFSYRGGVMRSSFEMLTYVS, for which the amyloid nucleation score was -0.906 ± 0.61. The figure for AFYLLF is -0.395 ± 0.51; for AGCVPMGEGLGTLESNYSKY it is 0.637 ± 0.52; for AGFQFSIDYR it is 0.259 ± 0.51. The figure for AGIKIGKEKGCHNYRFWWTV is 0.124 ± 0.5; for AGNRTVYWMLTSVSTSG it is 0.64 ± 0.75; for AGRIETIEIGSSCLSVCGGY it is 0.328 ± 0.58.

For AGRSNF, the amyloid nucleation score is -0.062 ± 1.2. The figure for AGSNSFIFFLVRFFVRALGR is -0.67 ± 0.34; for AHFHPLEVRFTIHDFLADNL it is -0.215 ± 0.5; for AIASVLAN it is -0.482 ± 0.3. As for AIDRRLYMGYSSWNEQDCEV, the entry is “inactive”; as for AIGCVWVRNRVAIVGERVAK, 2.08 ± 0.23; as for AIIDMDMSFRSGGCTNGVDV, 1.06 ± 0.32. For AIKCHL, the amyloid nucleation score is -0.721 ± 1.9. The figure for AINSSFWSVGLILEIDMYSY is -0.148 ± 0.45; for AIQYILEQLEQSRRWGISVH it is “inactive”; for AISTCQKRVYFWVQSGFVT it is -0.072 ± 0.2. The figure for AIVELLSWSQVTCALWGSIT is 0.344 ± 0.69. The figure for AIYMLHRNGGGGVCEAEAVR is -0.38 ± 0.69. In the case of AIYVRW, the amyloid nucleation score turned out to be 1.08 ± 0.22. The figure for AKCAVASAIKVQQDDADGPD is -0.012 ± 0.52. The substance AKLYMCSCINCTASHEITYF displayed an amyloid nucleation score of 8.419 ± 0.045. The figure for AKRLWIQLRGVHSRMLTGYY is -0.244 ± 1.5.

In turn, AKSQYMVVVYMPIYLWQCYI registered an amyloid nucleation score of 4.01 ± 0.14. As to ALAWWVLFL, the amyloid nucleation score came to 0.132 ± 1. With ALCDYWDIA, the amyloid nucleation score result was “inactive”. The figure for ALETFNGQVMSPSSRLRIDR is -1.07 ± 0.88; for ALFCDDEYRRDYW it is 0.192 ± 0.31; for ALFCSTIRNQIGFIRHPESF it is 0.026 ± 0.58.

The substance ALFESRPYTLSRERDKL had an amyloid nucleation score of -0.302 ± 0.36. As for ALMNNGWYILSNFPYCMVIY, the figure is 5.4 ± 0.064; as for AMGSDDE, -0.338 ± 1.3; as for ANALDCINDWDKSSQSCQGP, 0.812 ± 0.53.

As to ANLLINGFLSRSRDNYACYR, the amyloid nucleation score stood at 1.56 ± 0.18.

Take ANRHRNRRSSSRDVFMFVIC: the amyloid nucleation score came to 3.02 ± 0.19. The substance ANRYRVLKE displayed an amyloid nucleation score of 3.88 ± 0.095.

Turning to ANSYARCYNLVWKLV, the amyloid nucleation score is -0.291 ± 0.66. The entry for ANYFQSICQFDVDRIKLNSA is “inactive”; for APLALSGRVCFWSWFCPLFV it is 5.76 ± 0.084. APMYDDLDATMVELEGP came in with an amyloid nucleation score of 0.254 ± 1.2. The figure for APNFLMCNRPGIF is 3.02 ± 0.086. As for APNTEMGFEGLRELQVLPVV, the amyloid nucleation score was -0.854 ± 1.1. Substance APRHDCMSSDLQVVKMDFLL displayed an amyloid nucleation score of 0.799 ± 0.41. The figure for ARAGWRSYYRGHLCSESANE is 0.273 ± 0.65; for ARFMSLTRSSACETNVGVYL it is 0.608 ± 0.32; for ARTMKDYPLRTYVYYAPAGY it is 0.453 ± 0.75. The figure for ARWGFTWVKA is 0.372 ± 1.4; for ARYYLLFAFDNNFCIGVVGS it is 4.23 ± 0.099. The figure for ASFYPKPS is 0.4 ± 1.1; for ASGLMLFIMPFRWGWNSVFT it is 0.683 ± 0.42; for ASKKNIF it is -0.304 ± 0.79. ASNYR showed an amyloid nucleation score of 0.008 ± 0.88. With ASPVLFKWICPIYTS, the amyloid nucleation score worked out at 2.87 ± 0.15. As for ASRILV, the figure is -0.552 ± 0.6; as for ASTMFQIYVHPNYTISLMLK, 0.44 ± 0.28.

Consider ASVVSCQQSYLRWQEIL, for which the amyloid nucleation score was -0.316 ± 0.74. As for ASVYQRWPSFYRRLFVFNVI, the figure is 0.358 ± 0.55; as for ATQLAFSMILSAAVYFLKVV, -1.33 ± 1.7. The substance AVCIYRHRLVTGSWWLSIS displayed an amyloid nucleation score of 0.359 ± 0.39. The figure for AVFGRLMVVDVYVSRSALTS is 0.043 ± 0.94; for AVFLMFRYASFTYWM it is 0.444 ± 1.2; for AVIFVVLKMSFSISECDDEW it is “inactive”. Consider AVRTAFLAAHM, for which the amyloid nucleation score is -0.64 ± 0.98.

AVSLFAGDQFDDTTRSAQGI gave an amyloid nucleation score of -0.306 ± 0.74. As for AVSVWYYSRVRGRG, the figure is 0.025 ± 0.46. The figure for AVVHSRYRVSVCGDQDLSPL is -0.086 ± 0.41; for AVYMLSMCPFEYAYKRCVCG it is -1.16 ± 1.7; for AWAVGFYPFCRMFRSLYNYW it is 0.387 ± 0.98. As for AWDYNKN, the figure is 5.69 ± 0.075.

On to AWNRYIFIPTLEFTVLCMWC, for which the amyloid nucleation score was 6.139 ± 0.058.

As for AYASFDGDPEGRGFTSSKGD, the amyloid nucleation score entry was “inactive”. As to AYAVVGAM, the amyloid nucleation score was found to be 0.604 ± 0.69.

In the case of AYFYNEKNCYSHGKYVPYSF, the amyloid nucleation score was -0.797 ± 1.7. The figure for AYICYLILFQSQRVW is -0.827 ± 1.7; for AYLVPGQYVSPSFRFLTKNE it is 0.215 ± 0.68. The figure for AYTCHYQGGGLVNLVDVGYG is 0.353 ± 0.69. AYWGHITGKVKFMEAAPLDV came in with an amyloid nucleation score of 1.63 ± 0.73. As for CASWTCAEKAEHTMYMEDYP, the figure is 0.02 ± 0.36. As for CCDSPSRRSRAKECRMKYSM, the figure is -1.32 ± 1.2. As for CCHAYRFGWNASVLRCGICL, the figure is -0.444 ± 1.9; as for CCLVLSFLCNMEDSRNGG, 6.363 ± 0.056. The substance CCNGRLIIGNSNGNESYLSK displayed an amyloid nucleation score of -0.384 ± 0.37. CCRGCPERLLSWGGSPRATE registered an amyloid nucleation score of -0.334 ± 0.39. The figure for CCSPAPLSLVIIVATVGVAS is 2.04 ± 0.19; for CCVGRALCHNVVS it is 0.594 ± 0.55. The figure for CCVGWCFPACLLFST is 7.42 ± 0.079; for CCYNFYDSGANCHLFFVSFR it is -0.817 ± 1.7.

As to CDLFDFCISSKCRFKFLGRM, the amyloid nucleation score was -0.131 ± 0.9. The figure for CDNLRCRGLGDWCAWQPLTS is 0.335 ± 0.65; for CDNQVSGLNGS it is “inactive”; for CDWYDQMREVGESYVALSYN it is -0.386 ± 0.48. As for CEAFADTSSSYRDFYLQHQL, the figure is -1.44 ± 1.2; as for CELRTD, “inactive”.

As to CELSDSVNGNTFNMN, the amyloid nucleation score amounted to 2.18 ± 0.49. As for CFCFLRFYRLQPNAQLDSKS, the figure is 1.69 ± 0.31; as for CFGASNSLLFVDSSAWGSSG, -0.242 ± 0.5; as for CFIRLNNWLF, 1.59 ± 0.46.

Consider CFNMYLDVFDRVCRM, for which the amyloid nucleation score amounted to 1.85 ± 0.13. CFVFLFFVPLWSRNRGEYMY displayed an amyloid nucleation score of -0.937 ± 0.68. As for CFVGMMKRFR, the figure is 1.36 ± 0.4. Substance CFYFMECLV returned an amyloid nucleation score of -0.254 ± 0.59.

Substance CGFSDNGTCKND came in with an amyloid nucleation score of -0.059 ± 0.28.

In turn, CGGFGMIFYL yielded an amyloid nucleation score of 3.03 ± 0.11.

CGNLVCCNIMTDKNGY came in with an amyloid nucleation score of 7.886 ± 0.055. The figure for CGRVDEFKALLYKILRDYNW is -0.141 ± 0.23; for CGYLCNGKSGERSGIFGAHQ it is -0.088 ± 0.39. The figure for CGYSKVPMPCALAECGGRPR is 0.054 ± 0.45; for CHELLALDLLSMRNS it is 0.416 ± 0.55. The entry for CHNVVLFVVTQSMCEVSGGW is “inactive”; for CHVSLYRMDIGLQYRTGRIW it is 0.645 ± 0.52; for CHYFMNTLIV it is “inactive”.

The substance CIDFKSSGAGSTMSWNLVFN displayed an amyloid nucleation score of -0.188 ± 0.48. As for CIDYLRSDC, the figure is 1.2 ± 0.53. Substance CIFAYKCSIYERESL gave an amyloid nucleation score of 0.776 ± 0.49. The figure for CIGWSNGAPRCNQGRQRDRG is 0.828 ± 0.66; for CIYSICYFCNS it is 7.924 ± 0.043.

Regarding CKVQLSQDRAVECGVNHGVY, the amyloid nucleation score was -0.01 ± 0.44. As for CLCSYYKILVYSSLVLDNAY, the figure is 0.58 ± 0.45; as for CLCVGDDGGADWNKVRVITS, 0.18 ± 0.61. As to CLETRYL, the amyloid nucleation score turned out to be 1.15 ± 0.54. As for CLFLDWMPM, the figure is 0.548 ± 0.84; as for CLFLLNVGLSLLIGLPRYMW, 0.552 ± 0.91.

CLFRCVVEPLVIGYTKCAS: the amyloid nucleation score entry was “inactive”. Regarding CLFSRELTLSPLWDLVK, the amyloid nucleation score worked out at 1.79 ± 0.15. The figure for CLGHLLLTESIPCSFCSYWM is 4.55 ± 0.075; for CLGNNSFGDLGI it is 0.368 ± 0.34. As for CLGVSSGRLKCYVNYYCDNW, the figure is 0.106 ± 0.51. As for CLLSRLYMVSLFWS, the figure is 0.033 ± 0.43; as for CLLVKLARLGDG, 0.536 ± 0.63; as for CLPCVCIVNFTLGYDKGVV, 8.027 ± 0.048.

In turn, CLPLACLKTLSNDSVWLDCA registered an amyloid nucleation score of 0.402 ± 0.35. As for CLPRSGLSINWTVSHNYRLI, the figure is 0.11 ± 0.25; as for CLRLELDKF, 3.34 ± 0.12. The figure for CLSRKSWFWHGRWESVSCHP is -0.018 ± 0.53. The substance CLSRLLVLKYLSTWSKKWVW had an amyloid nucleation score of -0.115 ± 0.25. As for CLSYIVVALVRCTDIYYP, the figure is 0.763 ± 0.42; as for CLVKTSSVSTIWLVSCNTRT, 0.648 ± 0.55; as for CLVVVISS, -0.369 ± 0.57. As for CLVWLGNNFLDSLWGEGGRA, the figure is -0.291 ± 0.38.
